Values joined by “and” are separate entries in the source; they are usually repeats but may differ in a detail not shown here. Equal values may be shown once.
How the values were obtained:
[1] = biological target: human mesothelin (recombinant, soluble) (human) (UniProt Q13421); test: SPR BIAcore, captured mAb, mesothelin analyte
[2] = biological target: human mesothelin (recombinant, soluble) (human) (UniProt Q13421); test: SPR BIAcore, parental mAb captured, mesothelin analyte

human mesothelin (recombinant, soluble) (human), sequence (Q13421 other isoform, or with tags, fused parts or gaps limits assumed): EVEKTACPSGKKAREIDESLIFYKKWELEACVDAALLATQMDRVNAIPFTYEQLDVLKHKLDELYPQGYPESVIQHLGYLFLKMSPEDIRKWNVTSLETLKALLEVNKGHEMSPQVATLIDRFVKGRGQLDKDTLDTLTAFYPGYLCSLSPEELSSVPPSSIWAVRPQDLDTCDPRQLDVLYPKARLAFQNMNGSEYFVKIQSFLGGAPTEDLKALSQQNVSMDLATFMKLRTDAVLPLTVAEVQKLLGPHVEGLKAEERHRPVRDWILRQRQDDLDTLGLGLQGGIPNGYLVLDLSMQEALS

Binder | Kd [1] | koff [1] | Kd [2] [nM] | koff [2] [s⁻¹] | kon [2] [M⁻¹ s⁻¹] | kon [1]
201C15 (rabbit-human chimeric anti-human mesothelin antibody) (antibody, from another filing, V domains shown) VH: QSVKESGGRLVTPGTPLTLTCTVSGIDLSSYAMGWFRQAPGKGLEYIGTINIGGRVYYASWAKGRFTISRTSTTVDLKAPSLTAEDTATYFCARYYNGGSYDIWGPGTLVTVSL VL: DVVMTQTPASASEPVGGTVTIKCQASESIYRVLAWYQQKPGQPPKLLIYDTSTLASGAPSRFKGSGYGTEFTLTISGVQCEDAATYYCQGGYYADSYGIAFGGGTEVVVKR | 0.47 nM and 0.131 nM | 0.000129 s⁻¹ and 0.000345 s⁻¹ | 1.1 | 0.00026 | 240000 | –
111B10 (rabbit-human chimeric anti-human mesothelin antibody) (antibody, from another filing, V domains shown) VH: QSVEESGGRLVTPGTPLTLTCTVSGFSLNNYAMSWVRQAPGKGLEWIGSISTGGLAFYANWAKGRFTISRTSTTVDLKMTSLTTEDTATYFCGRNGGGSYIFYYFDLWGQGTLVTVSS VL: AFELTQTPSSVEAAVGGTITIKCQASQSISSYLSWYQQKPGQPPKLLIYSASTLASGVSSRFKGSGSGTEYTLTISDLECADAATYFCQSYYDIGTSTFGGGTEVVVKR | – | – | 6.3 | 0.0039 | 650000 | –
33O11 zu (humanized anti-human mesothelin antibody) (antibody, from another filing, V domains shown) VH: EVQLVESGGGLVQPGGSLRLSCAASGISLSSDAISWVRQAPGKGLEYIGIINGGGNTYYASWAKGRFTISRHNSKNTLYLQMNSLRAEDTAVYYCARGIQHGGGNSDYYYYGMDLWGQGTLVTVSS VL: DIQMTQSPSSLSASVGDRVTITCQASQSISSVLSWYQQKPGKAPKLLIYLASTLASGVPSRFSGSGSGTDFTLTISSLQCEDIATYYCQTNYGTSSSNYGFAFGGGTKVEIKR | – | – | 3.4 | 0.00065 | 220000 | –
346C6 (rabbit-human chimeric anti-human mesothelin antibody) (antibody, from another filing, V domains shown) VH: QSVEESGGRLVKPDESLTLTCTASGFSLSSYAMIWVRQAPGEGLEWIGTISTGGITYYASWAKGRFTISKTSTTVDLKITSPTTEDTATYFCARGGYAASSAYYLPYYFDLWGQGTLVTVSS VL: AAVLTQTPSPVSAAVGGTVTISCQSSQSVYNNNNLAWFQQKPGQPPKLLIYLASTLASGVPSRFSGSGSGTQFTLTISGVQCDDAATYYCLGGCDDDADTFAFGGGTEVVVKR | 0.706 nM and 0.529 nM | 0.000481 s⁻¹ and 0.000609 s⁻¹ | 1.4 | 0.00049 | 380000 | 682000 M⁻¹ s⁻¹ and 1.15e+06 M⁻¹ s⁻¹

Reference: patent US20210238304A1
